Where “and” joins values, the source holds several entries; their conditions need not be identical. Equal entries are not always repeated. Non-standard residues stand in square brackets, D forms with d. No end group written: not given here. Nle = CCCC[C@H](N)C(=O)O
T1: human PTH-1 receptor (human, UniProt Q03431 27-593)
T1 sequence (looked up): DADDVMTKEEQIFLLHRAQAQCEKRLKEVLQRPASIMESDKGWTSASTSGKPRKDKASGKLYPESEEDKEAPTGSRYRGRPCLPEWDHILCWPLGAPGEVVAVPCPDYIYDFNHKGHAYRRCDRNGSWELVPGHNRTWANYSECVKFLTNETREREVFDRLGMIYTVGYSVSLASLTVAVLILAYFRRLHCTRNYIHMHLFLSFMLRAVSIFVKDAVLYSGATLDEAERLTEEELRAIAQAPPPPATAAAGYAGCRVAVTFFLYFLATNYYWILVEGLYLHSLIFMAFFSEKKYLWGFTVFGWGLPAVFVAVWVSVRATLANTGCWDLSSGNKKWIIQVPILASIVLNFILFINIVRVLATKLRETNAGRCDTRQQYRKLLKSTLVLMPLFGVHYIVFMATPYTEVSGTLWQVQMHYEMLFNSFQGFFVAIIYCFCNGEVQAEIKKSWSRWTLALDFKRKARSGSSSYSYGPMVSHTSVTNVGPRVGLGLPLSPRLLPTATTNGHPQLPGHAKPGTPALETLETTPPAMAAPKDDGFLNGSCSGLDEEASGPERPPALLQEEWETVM

T2: rat PTH-1 receptor (rat, UniProt P25961 27-591)
T2 sequence (looked up): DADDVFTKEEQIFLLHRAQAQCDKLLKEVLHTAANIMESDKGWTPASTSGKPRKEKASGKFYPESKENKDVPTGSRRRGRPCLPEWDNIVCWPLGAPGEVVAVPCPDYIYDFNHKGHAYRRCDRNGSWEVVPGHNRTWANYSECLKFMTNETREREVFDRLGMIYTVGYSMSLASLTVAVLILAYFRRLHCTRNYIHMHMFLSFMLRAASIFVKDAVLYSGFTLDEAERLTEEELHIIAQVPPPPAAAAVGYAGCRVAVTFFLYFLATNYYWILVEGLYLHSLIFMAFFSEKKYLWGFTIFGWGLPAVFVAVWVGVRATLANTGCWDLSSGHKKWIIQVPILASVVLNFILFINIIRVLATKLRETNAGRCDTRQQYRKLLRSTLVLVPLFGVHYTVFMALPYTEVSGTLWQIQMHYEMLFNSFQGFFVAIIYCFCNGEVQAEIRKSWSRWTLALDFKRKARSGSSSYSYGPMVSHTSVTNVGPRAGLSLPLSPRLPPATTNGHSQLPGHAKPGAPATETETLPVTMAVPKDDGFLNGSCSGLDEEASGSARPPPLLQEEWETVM


What follows are binders tested against truncated human PTH-1 receptor hDelNt (human), Q03431 (assay: cell-based or functional assay).

Binder | cAMP Emax, COS-7 cells with hDeINt (picomole/well) | cAMP potency against native PTH(1-14)
SVSEIQLMHNLGKHLNSMERVEWLRKKLQDVHNY-NH2 [[Tyr^34]human (h)PTH(1-34)NH2] | 238 | –
AVSEIQL[Nle]HNLGKHLASVER[Nle]QWLRKKLQDVHNY-NH2 [[Nle^8,21,Tyr^34]-rPTH(1-34)NH2] | 243 | –
AVSEIQLMHNLGKH-NH2 [native rPTH(1-14)] | 222 | –
AVAEIQLMHAR-NH2 [[A3, A10, R11]rPTH(1-11)] | 243 | –
AVAEIQLMHARAKH-NH2 [[A3, A10, R11, A12]rPTH(1-14)] | 250 | 100 fold
AVAEIQLMHARAKHLNSMERVEWLRKKLQDVHNY-NH2 (also called peptide #7; #7) [[A1, A3, A10, R11, A12, Y34]hPTH(1-34)] | 251 | –

The binders below were run against T1, human PTH-1 receptor (assay: cell-based or functional assay).

Binder | cAMP potency against native PTH(1-14) | cAMP potency against controls, HKRK-B7 cells
AVAEIQLMHARAKW-NH2 [[A3, A10, R11, A12, W14]rPTH(1-14)] | 220 fold | –
AVAEIQLMHARAKHLNSMERVEWLRKKLQDVHNY-NH2 (also called peptide #7; #7) [[A1, A3, A10, R11, A12, Y34]hPTH(1-34)] | – | ~2 fold

What follows are binders tested against human PTH-2 receptor (human, UniProt P49190 25-550) (assay: cell-based or functional assay).
Chain of human PTH-2 receptor (P49190 25-550): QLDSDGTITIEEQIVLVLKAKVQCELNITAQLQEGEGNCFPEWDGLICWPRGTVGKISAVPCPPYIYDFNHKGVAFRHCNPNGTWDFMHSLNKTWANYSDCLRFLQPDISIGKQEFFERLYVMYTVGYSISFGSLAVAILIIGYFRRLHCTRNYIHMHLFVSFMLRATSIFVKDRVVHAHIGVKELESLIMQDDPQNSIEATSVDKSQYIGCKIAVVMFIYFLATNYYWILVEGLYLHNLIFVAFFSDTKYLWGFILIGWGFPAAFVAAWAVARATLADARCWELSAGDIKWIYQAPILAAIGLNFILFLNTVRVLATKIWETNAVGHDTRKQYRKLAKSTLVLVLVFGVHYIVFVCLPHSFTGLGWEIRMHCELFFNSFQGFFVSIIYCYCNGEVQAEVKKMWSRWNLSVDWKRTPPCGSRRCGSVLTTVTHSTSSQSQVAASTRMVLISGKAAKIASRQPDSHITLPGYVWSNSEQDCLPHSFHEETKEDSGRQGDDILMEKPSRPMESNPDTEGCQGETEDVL

Binder | cAMP EC50, LLC-P2R-22 cells | cAMP Emax, LLC-P2R-22 cells
AVSEIQL[Nle]HNLGKHLASVER[Nle]QWLRKKLQDVHNY-NH2 [[Nle^8,21,Tyr^34]-rPTH(1-34)NH2] | -8.4 Log M and 0.0044 µM | 744 picomole/well
AVAEIQLMHARA-NH2 [[A3, A10, R11, A12]rPTH(1-12)] | -3.5 Log M and 342 µM | 501 picomole/well
AVAEIQLMHARAKH-NH2 [[A3, A10, R11, A12]rPTH(1-14)] | -3.9 Log M and 126 µM | 292 picomole/well
AVAEIQLMHARAKHLNSMERVEWLRKKLQDVHNY-NH2 (also called peptide #7; #7) [[A1, A3, A10, R11, A12, Y34]hPTH(1-34)] | -7.7 Log M and 0.0192 µM | 677 picomole/well
AVAEIQLMHARAK-NH2 [[A3, A10, R11, A12]rPTH(1-13)] | -4 Log M and 106 µM | 501 picomole/well

Target: T1, human PTH-1 receptor
Assay: cell-based or functional assay
Remark: another data set of the same source

Binder | cAMP EC50, HKRK-B7 cells | cAMP Emax, HKRK-B7 cells
SVSEIQLMHNLGKHLNSMERVEWLRKKLQDVHNY-NH2 [[Tyr^34]human (h)PTH(1-34)NH2] | -8.4 Log M | 270 picomole/well
AVAEIQLMHARAKW-NH2 [[A3, A10, R11, A12, W14]rPTH(1-14)] | -6.3 Log M and 0.6 µM | 262 picomole/well
AVSEIQL[Nle]HNLGKHLASVER[Nle]QWLRKKLQDVHNY-NH2 [[Nle^8,21,Tyr^34]-rPTH(1-34)NH2] | -8.6 Log M and 0.0033 µM | 293 picomole/well
AVSEIQLMHNLGKH-NH2 [native rPTH(1-14)] | -3.9 Log M and 133 µM | 299 picomole/well
AVAEIQLMHARA-NH2 [[A3, A10, R11, A12]rPTH(1-12)] | -5 Log M and 10.2 µM | 238 picomole/well
AVAEIQLMHAR-NH2 [[A3, A10, R11]rPTH(1-11)] | -4.8 Log M and 17.1 µM | 248 picomole/well
AVAEIQLMHQRAKH-NH2 [[A3, Q10, R11, A12]rPTH(1-14)] | -6.1 Log M and 0.8 µM | 235 picomole/well
AVAEIQLMHARAKH-NH2 [[A3, A10, R11, A12]rPTH(1-14)] | -6.1 Log M and 0.83 µM | 264 picomole/well
AVAEIQLMHARAKHLNSMERVEWLRKKLQDVHNY-NH2 (also called peptide #7; #7) [[A1, A3, A10, R11, A12, Y34]hPTH(1-34)] | -8.8 Log M and 0.0016 µM | 244 picomole/well
AVAEIQLMHARAK-NH2 [[A3, A10, R11, A12]rPTH(1-13)] | -5.6 Log M and 2.4 µM | 239 picomole/well

These binders were tested against T1, human PTH-1 receptor (assay: competition binding on HKRK-B7 cells, 125I-rPTH(1-34) tracer displaced by varying doses of unlabeled peptide).
Description: Binding reactions were performed with stably transfected HKRK-B7 cells in 24-well plates. […] Incubations (final volume=300 µL) were at 15° C. for 4 h. Cells were then placed on ice, the binding medium was removed, and the monolayer was rinsed three times with 0.5 mL of cold binding buffer. The cells were subsequently lysed with 0.5 mL 5N NaOH and counted for radioactivity. The non-specific binding for each experiment was determined by competition with a 1 µM dose of unlabeled rPTH(1–34). The maximum specific binding (B_0) was the total radioactivity bound in the absence of unlabeled PTH ligand, corrected for nonspecific binding. Binding $IC50$ values were determined using nonlinear regression (see below).
To determine if these substitutions could enhance the activity of PTH(1–34), the substitutions of Ser3→Ala, Asn10→Ala, Leu11→Arg and Gly12→Ala were introduced into the analog [Ala1,Tyr34]hPTH(1–34) to yield peptide #7.

Binder | fold improvement in binding affinity, as compared to rPTH(1-34)
AVAEIQLMHARAKHLNSMERVEWLRKKLQDVHNY-NH2 (also called peptide #7; #7) [[A1, A3, A10, R11, A12, Y34]hPTH(1-34)] | ~2 fold

Target: T1, human PTH-1 receptor
Assay: cell-based or functional assay
Remark: another data set of the same source

Binder | cAMP EC50, COS-7 cells with WT hPTH-1 receptor | cAMP Emax, COS-7 cells with WT hPTH-1 receptor
SVSEIQLMHNLGKHLNSMERVEWLRKKLQDVHNY-NH2 [[Tyr^34]human (h)PTH(1-34)NH2] | -9.3 Log M | 226 picomole/well
AVSEIQL[Nle]HNLGKHLASVER[Nle]QWLRKKLQDVHNY-NH2 [[Nle^8,21,Tyr^34]-rPTH(1-34)NH2] | -9.2 Log M and 0.0007 µM | 226 picomole/well
AVSEIQLMHNLGKH-NH2 [native rPTH(1-14)] | -3.8 Log M and 152 µM | 221 picomole/well
AVAEIQLMHAR-NH2 [[A3, A10, R11]rPTH(1-11)] | -4.6 Log M and 29.1 µM | 238 picomole/well
AVAEIQLMHARAKH-NH2 [[A3, A10, R11, A12]rPTH(1-14)] | -6 Log M and 4.66 µM | 243 picomole/well
AVAEIQLMHARAKHLNSMERVEWLRKKLQDVHNY-NH2 (also called peptide #7; #7) [[A1, A3, A10, R11, A12, Y34]hPTH(1-34)] | -3.5 Log M and 313 µM | 222 picomole/well

What follows are binders tested against T2, rat PTH-1 receptor (assay: cell-based or functional assay).

Binder | cAMP EC50, ROS 17/2.8 cells | cAMP Emax, ROS 17/2.8 cells
SVSEIQLMHNLGKHLNSMERVEWLRKKLQDVHNY-NH2 [[Tyr^34]human (h)PTH(1-34)NH2] | -9.6 Log M and 0.0003 µM | 340 picomole/well
AVAEIQLMHARAKW-NH2 [[A3, A10, R11, A12, W14]rPTH(1-14)] | 3.4 µM | 382 picomole/well
AVSEIQL[Nle]HNLGKHLASVER[Nle]QWLRKKLQDVHNY-NH2 [[Nle^8,21,Tyr^34]-rPTH(1-34)NH2] | -9.5 Log M and 0.0003 µM | 364 picomole/well
AVSEIQLMHNLGKH-NH2 [native rPTH(1-14)] | -3.4 Log M and 449 µM | 376 picomole/well
AVAEIQLMHAR-NH2 [[A3, A10, R11]rPTH(1-11)] | 133 µM and -3.9 Log M | 377 picomole/well
AVAEIQLMHARAKH-NH2 [[A3, A10, R11, A12]rPTH(1-14)] | -5.2 Log M and 7.3 µM | 395 picomole/well
AVAEIQLMHARAKHLNSMERVEWLRKKLQDVHNY-NH2 (also called peptide #7; #7) [[A1, A3, A10, R11, A12, Y34]hPTH(1-34)] | -9.6 Log M and 0.0002 µM | 395 picomole/well

Target: T1, human PTH-1 receptor
Assay: cell-based or functional assay
Remark: another data set of the same source

Binder | cAMP Emax, SAOS-2 cells | cAMP EC50, SAOS-2 cells
SVSEIQLMHNLGKHLNSMERVEWLRKKLQDVHNY-NH2 [[Tyr^34]human (h)PTH(1-34)NH2] | 307 picomole/well | –
AVSEIQL[Nle]HNLGKHLASVER[Nle]QWLRKKLQDVHNY-NH2 [[Nle^8,21,Tyr^34]-rPTH(1-34)NH2] | 272 picomole/well | -9.75 Log M and 0.00018 µM
AVAEIQLMHAR-NH2 [[A3, A10, R11]rPTH(1-11)] | 235 picomole/well | 94.7 µM and -4.12 Log M
AVAEIQLMHARAKH-NH2 [[A3, A10, R11, A12]rPTH(1-14)] | 331 picomole/well | 12.7 µM and -4.9 Log M
AVAEIQLMHARAKHLNSMERVEWLRKKLQDVHNY-NH2 (also called peptide #7; #7) [[A1, A3, A10, R11, A12, Y34]hPTH(1-34)] | 272 picomole/well | 0.00011 µM and -9.95 Log M

Source: patent US7022815 (GENERAL HOSPITAL, dated 2006)
